The record followed here is patent US20240294670A1 (University of Texas, published 2024).

The Kd is the constant that tells how readily two partners part at equilibrium. What is called koff is the rate constant with which the complex falls apart. As a reminder, the kon is the rate constant with which the complex forms.

The target in experiment [1] is T1, recombinant human CHI3L1 (human, UniProt P36222 22-383).
T1 construct: His-tagged recombinant protein (Sino Biological 11227-H08H, or in-house HEK293 protein with 6xHIS-tag and avi-tag); also called hCHI3L1; hChi3l1
T1 sequence (P36222 22-383 limits assumed): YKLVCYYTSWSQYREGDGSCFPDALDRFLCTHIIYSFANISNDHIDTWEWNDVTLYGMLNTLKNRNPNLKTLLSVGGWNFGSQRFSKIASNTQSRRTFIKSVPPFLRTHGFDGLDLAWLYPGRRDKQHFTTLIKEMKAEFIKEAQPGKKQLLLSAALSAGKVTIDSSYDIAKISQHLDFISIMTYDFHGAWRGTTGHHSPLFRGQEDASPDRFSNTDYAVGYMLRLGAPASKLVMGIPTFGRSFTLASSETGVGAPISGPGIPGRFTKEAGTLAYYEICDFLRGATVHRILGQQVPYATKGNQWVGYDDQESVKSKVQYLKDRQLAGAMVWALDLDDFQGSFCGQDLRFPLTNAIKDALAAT
The experiment can be described thus: ELISA: human CHI3L1 coated on the plate, B cell culture supernatant 100 ul/well, A450. On the procedure: (§1) FIG. 7. The ELISA binding of the supernatant antibody to the human CHI3L1. (hCHI3L1), and mouse CHI3L1 (mCHI3L1). The CHI3L1 protein was coated on maxi-sorp 96-well plates, cell culture supernatant (100 ul/well) was used for binding on the antigen coated plate. Binding signals (A450 nm) are shown in Y-axis and CHI3L1 mAbs are shown on X-axis.
(§2) Binding affinity of anti-CHI3L1 monoclonal antibodies to the CHI3L1 protein using ELISA method. Binding of CHI3L1 by monoclonal antibodies was first screened by ELISA using supernatants collected from the B cell cultures and cross reactivity to mouse CHI3L1 protein was determined (FIG. 7).
(In general: In an ELISA, binding on a coated surface is turned into a signal by an enzyme label.)

Experiment [2] has as its target T2, recombinant mouse CHI3L1 (mouse, UniProt Q61362 30-389, limits assumed).
T2 construct: His-tagged; also called mCHI3L1; mChi3l1
As to the kind of experiment: ELISA: mouse CHI3L1 coated on the plate, B cell culture supernatant 100 ul/well, A450. How it is done:
as §1, §2

Experiment [3] addresses T2, recombinant mouse CHI3L1. As to the kind of experiment: BLI (Octet), mAb on protein A sensor, CHI3L1 in solution, 1:1 fit. How it is done: FIG. 8. Kinetic binding sensorgrams collected on Octet instrument for determination of kon and koff rates for each CHI3L1 antibody.
Binding affinity of anti-CHI3L1 monoclonal antibodies determined using Bio-layer interferometry (BLI), a sensor-based Octet instrument. […] Following by kinetics buffer washing to baseline, the loaded biosensors were exposed to a series of recombinant CHI3L1 protein at 0.1-200 nM range and background subtraction was used to correct for any background from sensor drifting. All experiments were performed with shaking at 1,000 rpm. Background wavelength shifts were measured from reference biosensors that were loaded with antibody and followed with buffer without antigen. ForteBio's data analysis software was used to fit the data to a 1:1 binding model to extract an association rate and dissociation rate. The KD was calculated using the ratio of koff/kon and the estimated values of KD for CHI3L1 mAbs in Table C.
(In BLI a coated tip is dipped into the sample, and binding shifts an interference pattern.)

T2 sequence (Q61362 30-389 limits assumed): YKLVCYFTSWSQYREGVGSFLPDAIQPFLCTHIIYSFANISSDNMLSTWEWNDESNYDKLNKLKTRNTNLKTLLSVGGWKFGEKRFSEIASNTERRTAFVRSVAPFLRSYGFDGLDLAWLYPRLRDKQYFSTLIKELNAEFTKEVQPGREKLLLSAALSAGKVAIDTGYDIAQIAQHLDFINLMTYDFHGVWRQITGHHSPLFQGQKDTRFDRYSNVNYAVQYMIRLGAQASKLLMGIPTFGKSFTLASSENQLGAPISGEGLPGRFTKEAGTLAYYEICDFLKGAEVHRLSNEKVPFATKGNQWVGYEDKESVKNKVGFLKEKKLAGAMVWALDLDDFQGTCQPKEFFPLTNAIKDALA

B1: anti-CHI3L1 monoclonal antibody C15 (antibody, V domains shown)
VH: QSVKESGGGLVQPEGSLTLTCTASGFDFSSNAMCWVRQAPGKGPEWIACIYNGDASTYYASWAKGRSTISKTSSTTVTLQMTSLTAADTATYFCARCFNRFYRGDLWGPGTLVTVSS
VL: DPMLTQTPSSVSAAVGGTVSISCQSSQSVYDNDWLSWYQQKPGQPPKLLIYDASKLASGVPSRFKGSGSGTQFTLTISDVQCDAAATYYCAGDYINTIDNAFGGGTEVVVK
notes: Rabbit mAb
As for B1, the binding result in experiment [1] and in experiment [2] was “binds” each time.

B2: anti-CHI3L1 monoclonal antibody C17 (antibody, V domains shown)
VH: QSVKESGGDLVKPGASLTLTCTASGFSFSSSYWICWVRQAPGKGLEWIACIDAGSSESTYYASWAKGRFTISKTSSTTVTLQMTSLTAADTATYFCARDSRVVAGVGMYLNLWGPGTLVTVSS
VL: AIKMTQTPASVEVAVGGTVTIKCQASQSIGIYLAWYQQKPGQPPKLLIYDASDLASGVPSRFRGSGSGTQFTLTISGVECADAATYYCQQGDTIYNVDNTFGGGTKVVVE
notes: Rabbit mAb
Take B2: the figures for the binding result in experiment [1] and in experiment [2] were “binds” and “no binding”, respectively.

B3: anti-CHI3L1 monoclonal antibody C19 (antibody, V domains shown)
VH: QEQLVEYGGDLVQPEGSLTLTCTASGFTISSTFYMGWVRQAPGKGLEWIGDMHVGSATTTYYASWAKGRFTISKPSSTTVTLQMTSLTAADTATYFCARYVNSGYYMDSWGPGTLVTVSS
VL: AQVLTQTPASVEVAVGGTVTIKCQASQTISNLLAWYQQKPGQPPKLLIYDASTLAYGVSSRFSGSGSGTQFTLTISGVQCADAATYYCQQGWSSSNVDNVFGGGTKLEIK
notes: Rabbit mAb
As to B3, the binding result in experiment [1] is “binds”; in experiment [2] it was “no binding”.

B4: anti-CHI3L1 monoclonal antibody C57 (antibody, V domains shown)
VH: QSVEESGGGLVQPGGSLTLTCKASGFSFSSGYWMCWVRQAPGKGLEWIACIGASYGGTFYASWAKGRFTISKTSSTTVTLQMTSLTAADTATYFCTRDDGGLDNPNLWGPGTLVTVSS
VL: DPVLTQTPASVEAAVGGTVTIKCQASQSIGSILAWYQQKPGQPPHLLIYAAAKLASGVPSRFKGSGSGTQFTLTISGVECDDAATYYCQSYYYSVTTSYSNSFGGGTEVVVK
notes: Rabbit mAb from single B cells, expressed as full length IgG in HEK293
In the case of B4, in experiment [3], the dissociation constant (Kd) is 4.09 nM, the koff was 0.000223 s⁻¹ and the kon amounted to 54500 M⁻¹ s⁻¹. Besides, the binding result in experiment [1] is listed as “no binding”.

B5: anti-CHI3L1 monoclonal antibody C64 (antibody, V domains shown)
VH: QSVEESGGDLVKPGASLTLTCTASGFSFSNNYWICWIRQAPGKGLEWIACIYAGDTGTAYYANWAKGRFTISKTSSTTVTLQMTSLTAADTATYFCARDGDGVGNGGTFALWGPGTLVTVSS
VL: ALVMTQTPASVEAAVGGTVTIRCQASERIGNALAWYQQKPGQPPKLLIYQTSKLTSGVPSRFKGSGSGTEHTLTISDLECADAATYYCQSYYYTGSISYEFGGGTKVVVE
notes: as for B4
As for B5, in experiment [3], the Kd was 0.254 nM, the off-rate constant (koff) is 2.71e-05 s⁻¹ and the on-rate (kon) came to 107000 M⁻¹ s⁻¹. The binding result in experiment [1] is on record as “no binding”.

B6: anti-CHI3L1 monoclonal antibody C68 (antibody, V domains shown)
VH: QSVEESGGDLVKPGASLTLTCTASGFSFSGPYWISWVRQAPGRGLEWIASIGARSSGSTHYASWAKGRFTISKTASTTVTLQMTSLTAADTATYFCARSYPAYAGDGYALYYFNLWGPGTLVTVSS
VL: DVVMTQTPASVSAAVGGTVTIKCQASEDIYSLLAWYQQKPGQPPKFLIYDASDLASGVPSRFSGSGSGTEYTLTINDLKCDDAATYYCQGGYYSGDGTDIPFGGGTELEIL
notes: as for B4
Regarding B6, in experiment [3], the dissociation constant Kd came to 0.799 nM, the koff was 0.00011 s⁻¹ and the association rate constant (kon) turned out to be 138000 M⁻¹ s⁻¹. Moreover, the binding result in experiment [1] is recorded as “no binding”.

B7: C22 (antibody, V domains shown)
VH: QLVEESGGGLVKPGAPLTLTCTLSGFSFSSGYYMCWVRQAPGKGLEWIACIYGAVSDRIYFASWAKGRFTMSRPSSTTVTLQMTSLTAADTATYFCARDSYSGSTYYRSYYFNLWGPGTLVTVSS
VL: DPVLTQTPASVSAAVGGTVTISCQSNENIYVDKYLSWYQQKPGQPPKGLIYSASTLASGVPSRFRGSGSGTQFTLTISDVQCDDAATYYCAGSFSSSDSCAFGGGTEVVVK
notes: also called anti-CHI3L1 monoclonal antibody C22
With B7, the binding result in experiment [1] was “binds”; in experiment [2] it was “no binding”.

B8: anti-CHI3L1 monoclonal antibody C18 (antibody, V domains shown)
VH: KQLVEESGGDLVRPEGSLTLTCKGSGFDFSRNAMCWVRQAPGKGLEWIACIYVGSGGGTYYATWAKGRFTISKTSSTTVTLQMTSLTAADTATYFCAGSPYSGYGYFNLWGPGTLVTVSS
VL: DPMLTQTPASVSEPVGGTVTIKCQASQSISTALAWYQQKPGQPPKLLIYRASILASGVPSRFKGSGSGTEFTLTISDLECADAATYYCQSYYDSSAGNTFGGGTKVEIK
notes: Rabbit mAb
As for B8, the binding result in experiment [1] is reported as “binds”; in experiment [2], “no binding”.

B9: anti-CHI3L1 monoclonal antibody C55 (antibody, V domains shown)
VH: QSVKESGGDLVKPGASLTLTCTASGFSFSSDYDIYWVRQAPGKGLEWIAWIDGGSSGEIYANWAKGRFTISKTSSTTVTLQMTSLTAADTAAYFCARCIWSHNYYDLWGPGTLVTVSS
VL: AIKMTQTPSSVSAAVGGTVTINCQASEDIENYLAWYQQKPGQPPKLLIYRASTLASGVSSRFKGSGSGTEFTLTISDLECADAATYWCQQGYSGSNVDNFFGGGTKVVVE
notes: Rabbit mAb from single B cells, expressed as full length IgG in HEK293; also called clone 55
On to B9, for which, in experiment [3], the Kd was 1.22 nM, the koff was 0.000141 s⁻¹ and the on-rate (kon) amounted to 115000 M⁻¹ s⁻¹.

B10: anti-CHI3L1 monoclonal antibody C30 (antibody, V domains shown)
VH: QEQLVESGGGLVTPGGTLTLTCTASGFDFSSYYYMCWVRQAPGKGLELIAAIDTGSGETYYASWANGRFTISKTSSTTVTLQMTSLTAADTATYFCARDPYFGTNLWGPGTLVTVSS
VL: DPMLTQTPSPVSAAVGGTVTITCQASQSVYNNNYLSWFQQKPGQPPKLLIYKASILASGVPSRFKGSGSGTQFTLTISDLQCDDAATYYCLGGYSSPSDDAFGGGTKVVVE
notes: Rabbit mAb
B10: the binding result in experiment [1] was “binds”.

B11: anti-CHI3L1 monoclonal antibody C61 (antibody, V domains shown)
VH: QEQLEESGGDLVKPEGSLTLTCTASGFSFSSSYWICWVRQAPGKGLEWIACIYAGGSGSTYYASWAKGRFTISKTSSTTVTLQMTSLTAADAATYFCARDGVSGSGWFFNLWGPGTLVTVSS
VL: DVVMTQTPASVSEPVGGTVTIKCQASQSISSYLTWYQQKPGQPPKLLIYKASTLASGVSSRFKGSGSGTEFTLTISDLECADAATYYCQSSYYGPSDVDFSPFGGGTEVEIK
notes: as for B4
As for B11, in experiment [3], the Kd was found to be 2.81 nM, the koff was found to be 0.000201 s⁻¹ and the association rate constant (kon) was 71500 M⁻¹ s⁻¹. Besides, the binding result in experiment [1] is reported as “no binding”.

B12: anti-CHI3L1 monoclonal antibody C21 (antibody, V domains shown)
VH: QSVKESGGGLVQPEGSLTLTCTASGFSFSSSYYMCWVRQAPGKGLEWIACIYNGDGSTYYASWAKGRFTISKTSSTTVTLQMTSLTAADTATYFCARDADYAGVVLNLWGPGTLVTVSS
VL: AQVLTQTPASVEAAVGGTVTIKCQASESIGNALAWYQQKPGQPPKLLIYVASYLASGVSSRFKGSRSGTEYTLTISDLECVDAATYYCQCTWYGNVYLAFGGGTEVVVK
notes: Rabbit mAb
As for B12, the binding result is listed as “binds” in experiment [1] and “no binding” in experiment [2].

B13: anti-CHI3L1 monoclonal antibody C65 (antibody, V domains shown)
VH: QSVEESGGGLVQPEGSLTLTCTASGFSFSSSYYMCWVRQAPGKGLEWIACIFTGGVSTYYASWVNGRFTISKTSSTTVTLQMTSLTAADTATYFCARTYTAGFTGDNYFNLWGPGTLVTVSS
VL: AQVLTQTPASVEAAVGGTVTIKCQASQSISSYLAWYQQKPGQPPKLLIYRASTLASGVPSRFKGSGSGTEFTLTISDLECADAATYYCQSDYYSSSSNNGFVFGGGTEVVVK
notes: as for B4
Regarding B13, in experiment [3], the Kd stood at 6 nM, the dissociation rate constant (koff) is 0.000756 s⁻¹ and the association rate constant (kon) worked out at 126000 M⁻¹ s⁻¹.
